Biological target: Full-length ectodomain of human LRP1 (LRP1-ECD) (human, UniProt Q07954-1 20-4414)
Assay: SEC

Full-length ectodomain of human LRP1 (LRP1-ECD), sequence (Q07954 20-4414): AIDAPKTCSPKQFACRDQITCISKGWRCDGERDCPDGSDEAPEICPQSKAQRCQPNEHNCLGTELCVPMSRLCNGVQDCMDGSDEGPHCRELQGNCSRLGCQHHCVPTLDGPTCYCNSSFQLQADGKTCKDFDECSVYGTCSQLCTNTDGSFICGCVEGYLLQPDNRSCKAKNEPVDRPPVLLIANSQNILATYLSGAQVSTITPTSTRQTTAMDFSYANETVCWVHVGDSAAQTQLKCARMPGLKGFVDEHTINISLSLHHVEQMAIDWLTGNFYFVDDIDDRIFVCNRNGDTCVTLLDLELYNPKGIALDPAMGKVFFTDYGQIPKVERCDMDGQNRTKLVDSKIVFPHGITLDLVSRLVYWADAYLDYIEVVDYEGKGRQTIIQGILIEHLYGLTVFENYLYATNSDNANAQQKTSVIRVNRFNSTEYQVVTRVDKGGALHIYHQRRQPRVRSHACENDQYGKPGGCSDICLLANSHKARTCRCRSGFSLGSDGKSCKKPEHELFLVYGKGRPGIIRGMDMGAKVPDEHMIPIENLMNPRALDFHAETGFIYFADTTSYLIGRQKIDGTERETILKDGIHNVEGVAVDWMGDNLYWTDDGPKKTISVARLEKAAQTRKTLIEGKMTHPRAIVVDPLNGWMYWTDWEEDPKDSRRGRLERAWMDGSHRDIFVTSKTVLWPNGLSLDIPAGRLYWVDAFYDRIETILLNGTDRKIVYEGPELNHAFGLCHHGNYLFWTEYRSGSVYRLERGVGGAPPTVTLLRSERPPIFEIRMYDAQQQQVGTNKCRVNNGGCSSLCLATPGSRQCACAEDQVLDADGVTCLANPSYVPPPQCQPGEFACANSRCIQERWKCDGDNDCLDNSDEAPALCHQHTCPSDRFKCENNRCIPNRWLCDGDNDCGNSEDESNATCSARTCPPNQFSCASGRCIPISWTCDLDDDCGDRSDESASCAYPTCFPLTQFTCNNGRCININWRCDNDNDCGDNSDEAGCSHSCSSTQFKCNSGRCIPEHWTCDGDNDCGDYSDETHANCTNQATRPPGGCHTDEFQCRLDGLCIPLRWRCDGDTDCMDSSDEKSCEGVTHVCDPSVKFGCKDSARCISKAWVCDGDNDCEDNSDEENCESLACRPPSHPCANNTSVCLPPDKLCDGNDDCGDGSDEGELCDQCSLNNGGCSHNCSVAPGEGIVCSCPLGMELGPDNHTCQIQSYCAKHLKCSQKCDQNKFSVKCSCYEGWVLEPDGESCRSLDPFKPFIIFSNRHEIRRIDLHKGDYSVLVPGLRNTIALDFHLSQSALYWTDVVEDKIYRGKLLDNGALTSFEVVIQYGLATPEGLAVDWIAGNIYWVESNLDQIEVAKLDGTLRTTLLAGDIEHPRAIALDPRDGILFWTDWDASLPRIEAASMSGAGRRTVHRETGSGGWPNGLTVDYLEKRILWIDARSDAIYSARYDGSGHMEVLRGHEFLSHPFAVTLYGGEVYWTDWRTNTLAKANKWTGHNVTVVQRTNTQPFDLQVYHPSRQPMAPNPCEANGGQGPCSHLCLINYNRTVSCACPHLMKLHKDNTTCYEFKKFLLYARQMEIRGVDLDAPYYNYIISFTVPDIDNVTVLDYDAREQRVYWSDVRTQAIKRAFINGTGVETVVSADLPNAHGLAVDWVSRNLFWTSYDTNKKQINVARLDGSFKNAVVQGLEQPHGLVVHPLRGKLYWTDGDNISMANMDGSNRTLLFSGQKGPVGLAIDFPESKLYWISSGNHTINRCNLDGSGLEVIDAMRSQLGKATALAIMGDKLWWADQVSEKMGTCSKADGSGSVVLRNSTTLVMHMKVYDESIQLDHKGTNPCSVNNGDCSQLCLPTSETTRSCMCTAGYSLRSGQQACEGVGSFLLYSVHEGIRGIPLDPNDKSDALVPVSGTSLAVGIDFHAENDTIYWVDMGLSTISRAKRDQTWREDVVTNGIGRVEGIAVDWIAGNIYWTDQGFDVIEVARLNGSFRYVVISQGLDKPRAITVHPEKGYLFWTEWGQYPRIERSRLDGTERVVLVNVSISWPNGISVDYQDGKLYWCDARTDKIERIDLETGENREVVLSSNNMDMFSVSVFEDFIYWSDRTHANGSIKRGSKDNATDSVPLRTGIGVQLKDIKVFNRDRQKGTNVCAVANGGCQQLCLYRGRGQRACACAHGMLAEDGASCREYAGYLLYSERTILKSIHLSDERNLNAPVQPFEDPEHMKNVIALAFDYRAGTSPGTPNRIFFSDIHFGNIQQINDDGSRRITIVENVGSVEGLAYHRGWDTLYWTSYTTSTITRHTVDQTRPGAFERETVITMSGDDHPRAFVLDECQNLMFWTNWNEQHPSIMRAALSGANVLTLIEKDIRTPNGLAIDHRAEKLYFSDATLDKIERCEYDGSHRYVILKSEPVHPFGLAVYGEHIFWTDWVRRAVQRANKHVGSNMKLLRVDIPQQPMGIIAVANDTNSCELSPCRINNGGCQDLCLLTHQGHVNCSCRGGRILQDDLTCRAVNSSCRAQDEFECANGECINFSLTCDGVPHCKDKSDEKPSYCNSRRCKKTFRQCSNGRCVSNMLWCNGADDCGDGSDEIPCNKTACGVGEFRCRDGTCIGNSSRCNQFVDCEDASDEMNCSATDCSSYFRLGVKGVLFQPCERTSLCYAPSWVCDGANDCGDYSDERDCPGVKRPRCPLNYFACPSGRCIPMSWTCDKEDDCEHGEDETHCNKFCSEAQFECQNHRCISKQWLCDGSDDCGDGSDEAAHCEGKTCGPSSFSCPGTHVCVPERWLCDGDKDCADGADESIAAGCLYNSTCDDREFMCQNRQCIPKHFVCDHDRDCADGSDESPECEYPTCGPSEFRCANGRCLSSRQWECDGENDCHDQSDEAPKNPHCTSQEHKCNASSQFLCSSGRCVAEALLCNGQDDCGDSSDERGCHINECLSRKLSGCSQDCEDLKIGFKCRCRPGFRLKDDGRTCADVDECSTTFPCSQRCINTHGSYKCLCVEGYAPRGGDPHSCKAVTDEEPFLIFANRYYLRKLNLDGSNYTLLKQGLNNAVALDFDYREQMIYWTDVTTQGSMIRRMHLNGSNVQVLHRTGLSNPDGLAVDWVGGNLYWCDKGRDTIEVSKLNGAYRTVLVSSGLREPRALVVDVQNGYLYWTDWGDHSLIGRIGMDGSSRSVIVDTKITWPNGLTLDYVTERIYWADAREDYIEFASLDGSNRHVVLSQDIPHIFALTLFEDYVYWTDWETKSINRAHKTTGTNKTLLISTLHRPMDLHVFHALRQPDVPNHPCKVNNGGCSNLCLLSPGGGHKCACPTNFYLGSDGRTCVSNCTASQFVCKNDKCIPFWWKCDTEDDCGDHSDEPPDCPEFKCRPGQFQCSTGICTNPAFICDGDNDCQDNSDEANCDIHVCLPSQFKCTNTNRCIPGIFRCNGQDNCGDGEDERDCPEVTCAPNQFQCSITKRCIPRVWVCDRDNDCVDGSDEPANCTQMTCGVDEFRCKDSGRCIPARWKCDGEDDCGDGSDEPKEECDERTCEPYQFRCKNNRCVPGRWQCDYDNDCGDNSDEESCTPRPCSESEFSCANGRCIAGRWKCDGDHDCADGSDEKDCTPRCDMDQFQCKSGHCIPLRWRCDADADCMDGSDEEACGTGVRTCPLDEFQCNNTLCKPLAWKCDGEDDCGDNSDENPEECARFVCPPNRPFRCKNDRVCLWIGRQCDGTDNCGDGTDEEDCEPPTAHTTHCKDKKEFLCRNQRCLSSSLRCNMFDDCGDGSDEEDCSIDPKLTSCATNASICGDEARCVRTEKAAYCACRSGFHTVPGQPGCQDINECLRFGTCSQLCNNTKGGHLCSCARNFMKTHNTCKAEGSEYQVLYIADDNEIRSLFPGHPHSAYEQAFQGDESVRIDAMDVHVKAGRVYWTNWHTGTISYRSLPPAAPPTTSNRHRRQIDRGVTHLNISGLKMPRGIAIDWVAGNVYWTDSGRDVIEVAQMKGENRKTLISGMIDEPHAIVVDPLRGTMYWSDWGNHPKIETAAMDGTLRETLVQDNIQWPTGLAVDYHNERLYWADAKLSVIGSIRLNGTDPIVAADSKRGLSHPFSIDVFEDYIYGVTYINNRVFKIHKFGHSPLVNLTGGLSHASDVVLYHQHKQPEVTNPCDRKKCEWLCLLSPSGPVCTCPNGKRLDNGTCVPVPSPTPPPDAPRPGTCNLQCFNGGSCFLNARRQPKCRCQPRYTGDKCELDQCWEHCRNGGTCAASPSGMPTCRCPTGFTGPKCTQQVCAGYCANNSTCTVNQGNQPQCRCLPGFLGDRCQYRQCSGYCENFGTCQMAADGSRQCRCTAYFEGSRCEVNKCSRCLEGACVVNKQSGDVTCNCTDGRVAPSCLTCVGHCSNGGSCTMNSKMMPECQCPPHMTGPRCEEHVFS

B1: Recombinant mouse SAA1 (purified SAA1, tag state not stated) (natural protein, UniProt P05366 20-122, looked up)
chain: GFFSFVHEAFQGAGDMWRAYTDMKEANWKNSDKYFHARGNYDAAQRGPGGVWAAEKISDGREAFQEFFGRGHEDTIADQEANRHGRSGKDPNYYRPPGLPDKY
binding result: binds
